Measured values taken from patent US20230349919A1.

target: human IL-6Rα (hIL-6Rα), barcoded negative control antigen (human) (UniProt P08887); assay: barcoded-antigen count on source cell (scRNA-seq)
Sequence (P08887 20-358 limits assumed): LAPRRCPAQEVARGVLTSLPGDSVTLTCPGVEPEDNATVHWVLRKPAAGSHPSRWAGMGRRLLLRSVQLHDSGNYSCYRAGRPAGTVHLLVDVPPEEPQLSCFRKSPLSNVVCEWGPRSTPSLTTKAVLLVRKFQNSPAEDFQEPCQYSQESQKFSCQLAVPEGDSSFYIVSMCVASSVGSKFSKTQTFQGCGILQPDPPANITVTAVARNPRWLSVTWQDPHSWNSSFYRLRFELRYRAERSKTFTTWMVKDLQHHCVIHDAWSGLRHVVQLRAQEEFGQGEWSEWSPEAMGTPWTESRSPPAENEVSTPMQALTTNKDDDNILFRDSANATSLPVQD

Binder	REGN78.L15 ab raw
Table 1 Line # 37 antibody (SP_B_cell) (antibody, human IgG4, V domains shown) VH: QVHLVESGGDVVQPGRSLRLSCAASGFTFSYYGMHWVRQAPFKGLEWVAVIWYDGSNKYYADSVKGRFTITRDNSKNTVYLQMNSLRAEDTAIYYCARWGGFGVTGTHLDYWGQGTLVTVSS VL: DIQLTQSPSLLSASVGDRVTITCWASQDIAGHFAWYQQKPGTVPKLLIYAISTLDSGVPSRFSGSRSGTEFTLTISSLQPEDFATYYCQHLNSYPYTFGQGTKLEIK	60 counts
Table 1 Line # 35 antibody (SP_B_cell) (antibody, human IgG4, V domains shown) VH: EVQLVESGGGLVKPGGSLRLSCAASGFTFSSYSMNWVRQAPGKGLEWVSSISSSSSYIYYADSVKGRFTISRDNAKNSLYLQMNSLRAEDTAVYYCARDRSSSPLENWGQGTLVTVSS VL: DIQMTQSPSSVSASVGDRVTITCRASQGISSWLAWYQQKPGKAPKLLIYAASSLQSGVPSRFSGSGSGTDFTLTISSLQPEDFATYYCQQANSFPITFGQGTRLEIK	33 counts
Table 1 Line # 1 antibody (BM_Plasma_cell) (antibody, human IgG4, V domains shown) VH: EVQLVESGGGLVKPGGSLRLSCAASGFTFSSYSMNWVRQAPGKGLEWVSSISSSSSYIYYADSVKGRFTISRDNAKNSLYLQMNSLRAEDTAVYYCASLAARPFWGQGTMVTVSS VL: DIQMTQSPSSVSASVGDRVTITCRASQGISSWLAWYQQKPGRAPKLLIYAASSLQSGVPSRFSGSGSGTDFTLTISSLQPEDFATYYCQQANSFPLTFGGGTKVEIK	271 counts
Table 1 Line # 40 antibody (SP_Plasma_cell) (antibody, human IgG4, V domains shown) VH: QVQLQESGPGLVKPSETLSLTCTISGGSISTYYWSWIRQPPGKGLEWIGYIYYSGNTNYNPSLKSRVTISVDTSKNQFSLKLNSVTAADTAVYYCARHRGSYVYGMDVWGQGTTVTVSS VL: DIQMTQSPSSLSASLVDRVTITCRASQTISSYLNWYQQKPGKAPKLLIYGASILQSGVPSRFSGSGSGTDFTLTISSLQPEDHAVYFCQQSYSSPTFGGGTKVEIK	1 counts

Second part, the binder after the results:

REGN78.L15 ab raw	Binder
5 counts	Table 1 Line # 53 antibody (SP_Plasma_cell) (antibody, human IgG4, V domains shown) VH: EIQLVESGGGLVQPGRSLRLSCAASGFTFDDYAMHWVRQAPGKGLEWVSGINWNNGSLGYADSVKGRFTISRDNAKNSLYLQMNSLRTEDTALYYCVKDTGSWASYYGMDVWGHGTTVTVSS VL: DIQMTQSPSSLSASIGDRVTITCRASQGIRNDLGWYQQKPGKAPKRLIYAASSLQSGVPSRFSGSGSGTEFTLTISSLQPEDFATYYCLQHNSYPYTFGQGTKLEIK
26 counts	Table 1 Line # 54 antibody (SP_Plasma_cell) (antibody, human IgG4, V domains shown) VH: QVQLVQSGAEVKKPGASVKVSCKASGYTFTNYGISWVRQAPGQGLEWMGWISVYNGNTNYAQKLQGRVTMTTDTSTSTAYMEVRSLRSDDTAVYYCARGVNWNYVFDYWGQGTLVTVSS VL: DIQMTQSPSSLSASVGDRVTITCRASQGIRNDLGWYQQKPGKAPKRLIYVVSSLQSGVPSRFSGSGSGTEFTLTISSLQPEDFATYYCLQHNSYPWTFGQGTKVEIK
2 counts	Table 1 Line # 49 antibody (SP_Plasma_cell) (antibody, human IgG4, V domains shown) VH: EVHLLESGGGFIQPGGSLRLSCAASGFTFSTYAMNWVRLAPGKGLEWVSTISGSGGFTSYTDSVQGRFTISRDNSKNKLYLQINNLTAEDTAVYYCAKDRRIVGATGFDYWGQGALVTVSS VL: DIQMTQSPSSLSASAGDRVTITCRASQSISSYLNWYQQKPGKAPKLLIYAASSLQSGVPSRFSGSGSGTDFTLTISSLQPEDSATYYCQQSYGFHTFGQGTRLEIK
2 counts	Table 1 Line # 46 antibody (SP_Plasma_cell) (antibody, human IgG4, V domains shown) VH: EVQLEASGGDLVQPGRSLRLSCAASGFIFDDFGMHWVRQAPGKGLEWVSGISWNGGHIGYADSVKGRFTISRDNAKNSLYLQMNSLRAEDTALYYCAKEHSSSWYGFFDFWGRGTLVTVSS VL: DIQMTQSPSSLSASVGDRVTITCRASQGLSNSVAWYQQKPGQIPRLLISAAASLQSGVPSRFSGSGSGTDFTLTISRLQPEDVATYYCQNYNSAPRTFGQGTNVEIK
